Values of other authors as cited in publication PMC10653114.

Columns and labels:
[1] = target: Asp12 (UniProt position 59, FDGVADYLQTY); conditions: 298 K; Conc. 0.0 (unit not given; Na+/Cl–)
[2] = target: Asp101 (UniProt position 148, IYKTTDHYQTF); conditions: 298 K; Conc. 0.0 (unit not given; Na+/Cl–)
[3] = target: Asp93 (UniProt position 140, ILYSSDWLIYK); conditions: 298 K; Conc. 0.0 (unit not given; Na+/Cl–)
[4] = target: Asp8 (UniProt position 55, VINTFDGVADY); conditions: 298 K; Conc. 0.0 (unit not given; Na+/Cl–)
[5] = target: Asp54 (UniProt position 101, KSIGGDIFSNR); conditions: 298 K; Conc. 0.0 (unit not given; Na+/Cl–)
[6] = target: Asp22 (UniProt position 69, YHKLPDNYITK); conditions: 298 K; Conc. 0.0 (unit not given; Na+/Cl–)
[7] = target: Asp75 (UniProt position 122, TWREADINYTS); conditions: 298 K; Conc. 0.0 (unit not given; Na+/Cl–)
[8] = target: Glu60 (UniProt position 107, IFSNREGKLPG); conditions: 298 K; Conc. 0.0 (unit not given; Na+/Cl–)
[9] = target: Asp86 (UniProt position 133, GFRNSDRILYS); conditions: 298 K; Conc. 0.0 (unit not given; Na+/Cl–)
[10] = target: Glu29 (UniProt position 76, YITKSEAQALG); conditions: 298 K; Conc. 0.0 (unit not given; Na+/Cl–)
[11] = target: Glu73 (UniProt position 120, GRTWREADINY); conditions: 298 K; Conc. 0.0 (unit not given; Na+/Cl–)
[12] = target: Asp44 (UniProt position 91, KGNLADVAPGK); conditions: 298 K; Conc. 0.0 (unit not given; Na+/Cl–)
[13] = target: Asp72 (UniProt position 92, NPPNCDLTVPT); assay: not stated (the title of ref 83 mentions NMR pH-dependent chemical shifts); conditions: 313 K; Conc. 0.0 (unit not given; Na+/Cl–)
[14] = target: Asp21 (UniProt position 41, VSILSDASFNQ); assay: as above; conditions: 313 K; Conc. 0.0 (unit not given; Na+/Cl–)
[15] = target: Asp30 (UniProt position 50, NQCSTDSGYSM); assay: as above; conditions: 313 K; Conc. 0.0 (unit not given; Na+/Cl–)
[16] = target: Lys94 (UniProt position 114, NGFSNKCSSL-); assay: as above; conditions: 313 K; Conc. 0.0 (unit not given; Na+/Cl–)
[17] = target: Lys61 (UniProt position 81, CNTMIKKIVTL); assay: as above; conditions: 313 K; Conc. 0.0 (unit not given; Na+/Cl–)
[18] = target: Lys41 (UniProt position 76, GGCRAKRNNFK); assay: NMR (only per the titles of cited refs 78 and 79; not given); conditions: 308 K; Conc. 0.0 (unit not given; Na+/Cl– counter-ions in the simulation)
[19] = target: Asp3 (UniProt position 38, KAQRPDFCLEP); assay: as above; conditions: 308 K; Conc. 0.0 (unit not given; Na+/Cl– counter-ions in the simulation)
[20] = target: Glu7 (UniProt position 42, PDFCLEPPYTG); assay: as above; conditions: 308 K; Conc. 0.0 (unit not given; Na+/Cl– counter-ions in the simulation)
[21] = target: Asp50 (UniProt position 85, FKSAEDCMRTC); assay: as above; conditions: 308 K; Conc. 0.0 (unit not given; Na+/Cl– counter-ions in the simulation)
[22] = target: Lys15 (UniProt position 50, YTGPCKARIIR); assay: as above; conditions: 308 K; Conc. 0.0 (unit not given; Na+/Cl– counter-ions in the simulation)
[23] = target: Lys26 (UniProt position 61, YFYNAKAGLCQ); assay: as above; conditions: 308 K; Conc. 0.0 (unit not given; Na+/Cl– counter-ions in the simulation)
[24] = target: Lys46 (UniProt position 81, KRNNFKSAEDC); assay: as above; conditions: 308 K; Conc. 0.0 (unit not given; Na+/Cl– counter-ions in the simulation)
[25] = target: Glu49 (UniProt position 84, NFKSAEDCMRT); assay: as above; conditions: 308 K; Conc. 0.0 (unit not given; Na+/Cl– counter-ions in the simulation)
[26] = target: Lys71 (UniProt position 75, FQVLVKKISQ-); conditions: 300 K; Conc. 0.00 (unit not given; Na+/Cl–); apo (Ca2+-free), inferred from the apo structure 1CLB used
[27] = target: Lys41 (UniProt position 45, FPSLLKGPSTL); conditions: 300 K; Conc. 0.00 (unit not given; Na+/Cl–); apo (Ca2+-free), inferred from the apo structure 1CLB used
[28] = target: Lys29 (UniProt position 33, SKEELKLLLQT); conditions: 300 K; Conc. 0.00 (unit not given; Na+/Cl–); apo (Ca2+-free), inferred from the apo structure 1CLB used
[29] = target: Lys55 (UniProt position 59, FEELDKNGDGE); conditions: 300 K; Conc. 0.00 (unit not given; Na+/Cl–); apo (Ca2+-free), inferred from the apo structure 1CLB used
[30] = target: Lys7 (UniProt position 11, SPEELKGIFEK); conditions: 300 K; Conc. 0.00 (unit not given; Na+/Cl–); apo (Ca2+-free), inferred from the apo structure 1CLB used
[31] = target: Lys16 (UniProt position 20, EKYAAKEGDPN); conditions: 300 K; Conc. 0.00 (unit not given; Na+/Cl–); apo (Ca2+-free), inferred from the apo structure 1CLB used
[32] = target: Lys12 (UniProt position 16, KGIFEKYAAKE); conditions: 300 K; Conc. 0.00 (unit not given; Na+/Cl–); apo (Ca2+-free), inferred from the apo structure 1CLB used
[33] = target: Lys25 (UniProt position 29, PNQLSKEELKL); conditions: 300 K; Conc. 0.00 (unit not given; Na+/Cl–); apo (Ca2+-free), inferred from the apo structure 1CLB used
[34] = target: Lys72 (UniProt position 76, QVLVKKISQ--); conditions: 300 K; Conc. 0.00 (unit not given; Na+/Cl–); apo (Ca2+-free), inferred from the apo structure 1CLB used
[35] = target: Lys33 (UniProt position 51, WVCAAKFESNF); assay: NMR (per the title of cited ref 36); conditions: 300 K; Conc. 0.10 (unit not given; Na+/Cl–)
[36] = target: Lys116 (UniProt position 134, WRNRCKGTDVQ); assay: NMR (per the title of cited ref 36); conditions: 300 K; Conc. 0.10 (unit not given; Na+/Cl–)
[37] = target: Asp119 (UniProt position 137, RCKGTDVQAWI); assay: NMR (per the title of cited ref 36); conditions: 300 K; Conc. 0.10 (unit not given; Na+/Cl–)
[38] = target: Asp18 (UniProt position 36, KRHGLDNYRGY); assay: NMR (per the title of cited ref 36); conditions: 300 K; Conc. 0.10 (unit not given; Na+/Cl–)
[39] = target: Asp66 (UniProt position 84, RWWCNDGRTPG); assay: NMR (per the title of cited ref 36); conditions: 300 K; Conc. 0.10 (unit not given; Na+/Cl–)
[40] = target: Lys13 (UniProt position 31, LAAAMKRHGLD); assay: NMR (per the title of cited ref 36); conditions: 300 K; Conc. 0.10 (unit not given; Na+/Cl–)
[41] = target: Asp48 (UniProt position 66, TNRNTDGSTDY); assay: NMR (per the title of cited ref 36); conditions: 300 K; Conc. 0.10 (unit not given; Na+/Cl–)
[42] = target: Glu35 (UniProt position 53, CAAKFESNFNT); assay: NMR (per the title of cited ref 36); conditions: 300 K; Conc. 0.10 (unit not given; Na+/Cl–)
[43] = target: Asp52 (UniProt position 70, TDGSTDYGILQ); assay: NMR (per the title of cited ref 36); conditions: 300 K; Conc. 0.10 (unit not given; Na+/Cl–)
[44] = target: Asp101 (UniProt position 119, KKIVSDGNGMN); assay: NMR (per the title of cited ref 36); conditions: 300 K; Conc. 0.10 (unit not given; Na+/Cl–)
[45] = target: Asp87 (UniProt position 105, ALLSSDITASV); assay: NMR (per the title of cited ref 36); conditions: 300 K; Conc. 0.10 (unit not given; Na+/Cl–)
[46] = target: Lys96 (UniProt position 114, SVNCAKKIVSD); assay: NMR (per the title of cited ref 36); conditions: 300 K; Conc. 0.10 (unit not given; Na+/Cl–)
[47] = target: Lys97 (UniProt position 115, VNCAKKIVSDG); assay: NMR (per the title of cited ref 36); conditions: 300 K; Conc. 0.10 (unit not given; Na+/Cl–)
[48] = target: Glu7 (UniProt position 25, VFGRCELAAAM); assay: NMR (per the title of cited ref 36); conditions: 300 K; Conc. 0.10 (unit not given; Na+/Cl–)

Barnase (Bacillus amyloliquefaciens)
pKa [1]: 3.6 ± 0.2 | pKa [2]: 2.0 ± 0.2 | pKa [3]: <2.0 | pKa [4]: 3.1 ± 0.2 | pKa [5]: 2.2 ± 0.3 | pKa [6]: 3.3 ± 0.1 | pKa [7]: 3.1 ± 0.2 | pKa [8]: 3.4 ± 0.1 | pKa [9]: 4.2 ± 0.1 | pKa [10]: 3.75 ± 0.05 | pKa [11]: 2.1 ± 0.1 | pKa [12]: 3.6 ± 0.1

Beta-cryptogein (beta-elicitin) (Phytophthora cryptogea)
pKa [13]: 2.61 ± 0.15 | pKa [14]: 2.49 ± 0.05 | pKa [15]: 2.51 ± 0.09 | pKa [16]: 9.4 | pKa [17]: 10.1

Bovine pancreatic trypsin inhibitor (BPTI) (Bos taurus)
pKa [18]: 11.20 | pKa [19]: 3.25 ± 0.15 | pKa [20]: 3.65 ± 0.05 | pKa [21]: 3.20 ± 0.20 | pKa [22]: 10.60 | pKa [23]: 10.60 | pKa [24]: 10.30 | pKa [25]: 3.75 ± 0.05

Calbindin D9k (apo) (Bos taurus)
pKa [26]: 11.22 | pKa [27]: 11.02 | pKa [28]: 11.81 | pKa [29]: 12.95 | pKa [30]: 12.53 | pKa [31]: 11.90 | pKa [32]: 12.02 | pKa [33]: 13.21 | pKa [34]: 11.95

Hen egg-white lysozyme (HEWL) (Gallus gallus)
pKa [35]: 10.60 ± 0.10 | pKa [36]: 10.40 ± 0.10 | pKa [37]: 3.2 ± 0.09 | pKa [38]: 2.66 ± 0.08 | pKa [39]: 0.90 ± 0.5 | pKa [40]: 10.50 ± 0.10 | pKa [41]: 1.60 ± 0.4 | pKa [42]: 6.20 ± 0.10 | pKa [43]: 3.68 ± 0.08 | pKa [44]: 4.09 ± 0.07 | pKa [45]: 2.07 ± 0.15 | pKa [46]: 10.80 ± 0.10 | pKa [47]: 10.30 ± 0.10 | pKa [48]: 2.85 ± 0.25
